Measured values from patent US20260275324A1, “UNNATURAL AMINO ACID IN CELLULO SYNTHESIS FOR SITE-SPECIFIC PROTEIN MODIFICATION” (The Chinese University of Hong Kong, priority 2023, published 2026).

Key:
[1] = target: GST-CDK4 (Sino Biological) (UniProt P11802); test: microscale thermophoresis (MST); Alexa Fluor 647-labelled MBP-cycP16p at 70 nM, GST-CDK4 titrated from 1.92 µM
[2] = target: GST-CDK4 (Sino Biological) (UniProt P11802); test: microscale thermophoresis (MST), against linear MBP-P16p as reference
[3] = target: CDK4 of MCF-7 cells (endogenous) (UniProt P11802); test: cell-based or functional assay
[4] = target: α-synuclein (Homo sapiens, UniProt P37840); conditions: in vitro and in vivo, Liang et al. 2021; cited from earlier work

cycRGD-mCh-cycP16p (bifunctional bicyclic protein), sequence (P42771 83-103): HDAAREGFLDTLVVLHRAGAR
GST-CDK4 (Sino Biological), sequence (P11802 whole entry): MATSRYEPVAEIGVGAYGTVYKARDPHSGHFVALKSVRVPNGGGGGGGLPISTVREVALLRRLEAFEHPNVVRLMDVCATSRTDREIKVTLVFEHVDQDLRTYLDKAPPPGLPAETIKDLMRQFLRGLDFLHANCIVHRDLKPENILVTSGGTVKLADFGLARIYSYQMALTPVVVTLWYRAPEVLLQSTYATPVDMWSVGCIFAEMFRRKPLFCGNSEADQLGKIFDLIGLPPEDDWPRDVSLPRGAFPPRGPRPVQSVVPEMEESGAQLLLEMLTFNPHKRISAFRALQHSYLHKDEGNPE

MBP-cycP16p (cyclized MBP-P16p protein) (from UniProt P0AEX9 27-392; P42771 83-103)
Kd [1]: 27.7 nM | fold higher binding affinity compared to its linear counterpart MBP-P16p [2]: 4 fold

R9-P16p (linear P16p fused to the poly-arginine cell penetrating sequence; Pepmic) (from UniProt P42771 84-103) (peptide)
percent of MCF-7 cells arrested at G0/G1 phase (flow cytometry, 15 µM, 24 h) [3]: 60.7%

SUMOmini2: earlier linear version of SUMO1 peptide (15-55), Liang et al.
inhibition of α-synuclein aggregation [4]: effectively inhibit α-synuclein aggregation in vitro and in vivo

cycRGD-mCh-P16p (cycRGD-mCherry bearing linear uncyclized P16p) (from UniProt P42771 83-103)
percent of MCF-7 cells arrested at G0/G1 phase (flow cytometry, 15 µM, 24 h) [3]: 46.7%

cycRGD-mCh-cycP16p (bifunctional bicyclic protein) (from UniProt P42771 83-103)
percent of MCF-7 cells arrested at G0/G1 at 72 h (time course) [3]: 88% | percent of MCF-7 cells arrested at G0/G1 phase (flow cytometry, 15 µM, 24 h) [3]: 76.7%
